In patent US20170024512A1:

Target: RecBCD (endogenous exonuclease of the E. coli cell-free extract) (E. coli) (UniProt P08394)
Experiment: cell-based or functional assay

UniProt P08394, sequence (P08394 2-1180 limits assumed, chain 1 of 3): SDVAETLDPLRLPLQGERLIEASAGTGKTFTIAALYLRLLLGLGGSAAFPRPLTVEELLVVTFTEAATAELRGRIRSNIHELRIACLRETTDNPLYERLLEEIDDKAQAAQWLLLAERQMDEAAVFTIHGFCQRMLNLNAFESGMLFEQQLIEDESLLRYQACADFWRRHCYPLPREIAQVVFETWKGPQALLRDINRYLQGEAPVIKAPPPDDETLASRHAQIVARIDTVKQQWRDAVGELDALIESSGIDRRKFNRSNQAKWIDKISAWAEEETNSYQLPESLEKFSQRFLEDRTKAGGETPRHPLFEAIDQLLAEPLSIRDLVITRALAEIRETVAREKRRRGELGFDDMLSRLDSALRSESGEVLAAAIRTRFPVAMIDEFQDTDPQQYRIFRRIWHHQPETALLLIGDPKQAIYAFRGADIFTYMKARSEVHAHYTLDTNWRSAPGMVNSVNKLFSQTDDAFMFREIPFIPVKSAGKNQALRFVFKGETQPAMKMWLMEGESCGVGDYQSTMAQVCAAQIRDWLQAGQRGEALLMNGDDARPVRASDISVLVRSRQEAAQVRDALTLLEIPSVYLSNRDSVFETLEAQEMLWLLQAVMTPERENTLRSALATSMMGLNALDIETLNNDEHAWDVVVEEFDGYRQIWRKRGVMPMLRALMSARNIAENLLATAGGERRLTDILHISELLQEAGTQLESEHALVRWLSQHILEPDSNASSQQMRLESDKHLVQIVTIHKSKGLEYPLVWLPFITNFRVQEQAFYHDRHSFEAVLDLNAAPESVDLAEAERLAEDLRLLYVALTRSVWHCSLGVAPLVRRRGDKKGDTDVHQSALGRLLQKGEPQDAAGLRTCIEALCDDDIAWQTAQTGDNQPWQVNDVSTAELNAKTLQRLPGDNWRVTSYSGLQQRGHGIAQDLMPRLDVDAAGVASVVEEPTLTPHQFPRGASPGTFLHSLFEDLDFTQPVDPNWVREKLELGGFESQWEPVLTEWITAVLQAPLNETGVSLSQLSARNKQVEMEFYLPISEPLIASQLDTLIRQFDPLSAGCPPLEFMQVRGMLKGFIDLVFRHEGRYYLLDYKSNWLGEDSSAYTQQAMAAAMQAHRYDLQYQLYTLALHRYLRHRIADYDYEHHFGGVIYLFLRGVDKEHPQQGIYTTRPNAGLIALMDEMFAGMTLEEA
UniProt P08394, sequence (P07648 whole entry, chain 2 of 3, further chain): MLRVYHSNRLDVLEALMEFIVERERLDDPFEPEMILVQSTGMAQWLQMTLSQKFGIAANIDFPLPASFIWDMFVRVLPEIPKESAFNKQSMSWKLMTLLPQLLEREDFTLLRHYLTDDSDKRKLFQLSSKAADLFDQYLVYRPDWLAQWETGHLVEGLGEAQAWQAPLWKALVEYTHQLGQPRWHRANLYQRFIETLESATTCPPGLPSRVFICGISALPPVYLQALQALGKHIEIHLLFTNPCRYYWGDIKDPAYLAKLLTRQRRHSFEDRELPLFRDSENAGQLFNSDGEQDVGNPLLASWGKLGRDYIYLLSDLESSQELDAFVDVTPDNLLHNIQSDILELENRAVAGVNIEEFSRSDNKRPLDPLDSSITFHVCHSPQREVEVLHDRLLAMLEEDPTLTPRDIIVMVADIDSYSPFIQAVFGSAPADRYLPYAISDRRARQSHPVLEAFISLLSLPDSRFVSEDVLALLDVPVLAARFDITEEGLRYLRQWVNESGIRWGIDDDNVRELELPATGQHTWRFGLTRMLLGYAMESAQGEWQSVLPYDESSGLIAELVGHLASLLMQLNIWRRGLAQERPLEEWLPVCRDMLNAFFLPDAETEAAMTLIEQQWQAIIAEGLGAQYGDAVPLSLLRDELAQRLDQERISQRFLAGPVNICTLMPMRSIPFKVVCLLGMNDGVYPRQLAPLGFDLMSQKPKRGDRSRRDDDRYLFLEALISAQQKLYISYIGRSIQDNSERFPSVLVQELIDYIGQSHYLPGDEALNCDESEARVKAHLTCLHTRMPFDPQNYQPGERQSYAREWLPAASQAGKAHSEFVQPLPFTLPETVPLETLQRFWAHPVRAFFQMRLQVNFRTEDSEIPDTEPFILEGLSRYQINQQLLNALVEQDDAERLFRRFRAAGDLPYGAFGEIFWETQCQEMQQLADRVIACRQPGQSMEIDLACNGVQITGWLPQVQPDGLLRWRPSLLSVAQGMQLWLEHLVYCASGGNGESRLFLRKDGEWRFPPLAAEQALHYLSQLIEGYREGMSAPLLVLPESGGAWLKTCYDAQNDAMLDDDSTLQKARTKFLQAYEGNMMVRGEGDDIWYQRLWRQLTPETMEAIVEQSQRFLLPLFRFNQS
UniProt P08394, sequence (P04993 whole entry, chain 3 of 3, further chain): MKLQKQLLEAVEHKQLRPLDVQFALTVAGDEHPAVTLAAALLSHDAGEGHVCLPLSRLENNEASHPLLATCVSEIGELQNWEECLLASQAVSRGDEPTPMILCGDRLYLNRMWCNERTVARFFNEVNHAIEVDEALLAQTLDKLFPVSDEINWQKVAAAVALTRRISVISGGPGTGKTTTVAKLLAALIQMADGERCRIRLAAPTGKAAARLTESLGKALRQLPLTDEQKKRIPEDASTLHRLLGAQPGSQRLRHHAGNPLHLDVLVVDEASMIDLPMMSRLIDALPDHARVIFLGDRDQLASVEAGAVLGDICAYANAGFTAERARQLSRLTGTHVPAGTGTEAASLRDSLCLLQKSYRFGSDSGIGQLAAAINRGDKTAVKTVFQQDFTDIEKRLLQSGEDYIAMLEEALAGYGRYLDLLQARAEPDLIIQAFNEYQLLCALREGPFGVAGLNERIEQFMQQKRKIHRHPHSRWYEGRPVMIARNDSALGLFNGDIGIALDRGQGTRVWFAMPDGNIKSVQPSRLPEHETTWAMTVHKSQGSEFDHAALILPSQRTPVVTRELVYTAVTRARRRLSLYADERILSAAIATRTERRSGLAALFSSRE

## gamS protein (GamS, a truncated form of lambda gam) (from UniProt P03702 1-98)
  protection of linear DNA from degradation in TX-TL (endpoint deGFP expression from 2 nM linear DNA); gamS working concentration: 3.5 µM
